The values that follow come from article PMC11310338.

This assay deals with phosphorylated CTD peptide (pS2pS5) of RNAP2 labeled with an NH2 terminal FITC group. The assay is described as follows: fluorescence polarisation. For orientation: In fluorescence polarisation assays a small probe gives low polarisation when free and higher when bound to something large.

B1: SCAF8-CID domain fragment comprising residues 1-139 (domain or fragment)
chain: MEAVKTFNSELYSLNDYKPPISKAKMTQITKAAIKAIKFYKHVVQSVEKFIQKCKPEYKVPGLYVIDSIVRQSRHQFGQEKDVFAPRFSNNIISTFQNLYRCPGDDKSKIVRVLNLWQKNNVFKSEIIQPLLDMAAGIP
The term Kd denotes a measure of binding affinity in units of concentration. Read a high Kd as a looser complex. Regarding B1, the Kd is 622 nM.

B2: Human SCAF4-CID domain fragment comprising residues 1-139 (domain or fragment)
chain: MDAVNAFNQELFSLMDMKPPISRAKMILITKAAIKAIKLYKHVVQIVEKFIKKCKPEYKVPGLYVIDSIVRQSRHQFGTDKDVFGPRFSKNITATFQYLYLCPSEDKSKIVRVLNLWQKNGVFKIEIIQPLLDMAAGTS
Consider B2, for which the Kd is 366 nM.
